Data taken from PMC4789156 (Translational research : the journal of laboratory and …, 2015).

Target: Recombinant human Smad2 with C-terminal MYC/DDK tag (human, UniProt Q15796-1 1-467)
Assay: co-IP

Sequence of Recombinant human Smad2 with C-terminal MYC/DDK tag (Q15796 whole entry): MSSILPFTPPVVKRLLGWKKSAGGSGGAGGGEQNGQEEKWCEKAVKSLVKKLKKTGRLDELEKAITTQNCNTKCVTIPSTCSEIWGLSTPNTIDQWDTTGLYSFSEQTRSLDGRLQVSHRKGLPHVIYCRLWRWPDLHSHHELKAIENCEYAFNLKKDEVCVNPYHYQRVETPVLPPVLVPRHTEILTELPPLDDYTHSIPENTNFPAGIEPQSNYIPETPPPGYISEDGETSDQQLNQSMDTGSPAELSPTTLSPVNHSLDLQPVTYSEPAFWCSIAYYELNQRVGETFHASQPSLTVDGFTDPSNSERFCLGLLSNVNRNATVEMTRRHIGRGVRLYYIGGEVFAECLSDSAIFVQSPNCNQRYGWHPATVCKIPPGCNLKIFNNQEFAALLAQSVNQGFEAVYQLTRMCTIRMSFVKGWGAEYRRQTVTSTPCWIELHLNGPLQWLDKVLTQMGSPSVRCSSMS

## TRPASFWETS [M10 peptide (caspase-3 cleavage product of the hepatocyte growth factor receptor MET)]
  binding result: binds
